# Assay results: patent US20260137783A1 (CRISPR THERAPEUTICS, published 2026)
# B1: Anti-CD117 VHH P10 (monovalent form) (VHH)
# VHH: QVQLVESGGGLVQAGGSLRLSCVASGRTFSSYAMGWFRQGPGKEREFAAAILSNGLTTYYADSVKGRFTISRDNAKDTVYLQMNSLKPEDTANYYCAAAFTPEFRDGGIWDDASVDYWGQGTQVTVSS
# notes: Secreted from Expi293 cells
# B2: Anti-CD117 VHH P38 (monovalent form) (VHH)
# VHH: EVQLVESGGGLVQAGGSLRLSCAASGRTSGSYVMGWFRQAPGKEREFVAAISWSAGMTYYADSVKGRFTISRDNAKNTVYLQMNSLKPEDTAVYYCAADQRGVPAYYSDYALYDYWGQGTQVTVSS
# B3: Anti-CD117 VHH P31 (monovalent form) (VHH)
# VHH: EVQLVESGGGLVRAGGSLRLSCAASGRTFTYDARAWFRQAPGKEREFVAAISWSGGSTYYPNSMKGRFTISRDNAKNTVYLQMNSLKPEDTAVYYCAADESFPAYYSDYALYRYWGQGTLVTVSS
# notes: Secreted from Expi293 cells
# B4: Anti-CD117 VHH P29 (monovalent form) (VHH)
# VHH: QVHLVESGGGLVQAGGSLGLSCAASGHTFSNYAMGWFRQAPGKEREFVAAISWSGGSTLYADSVKGRFTISRDNGENTVYLQMNSLKPEDTAVYYCALDSTGVYGTGYVSSRKGRYEYWGQGTLVTVSS
# notes: Secreted from Expi293 cells
# B5: Anti-CD117 VHH P35 (monovalent form) (VHH)
# VHH: QVQLVESGGGLVQAGGSLRLSCAASGGTFSIYPVGWFRQAPGKQREFVAAIGWSASGTYYGDSVEGRFTVSRDNARSTVYLRMSSLKPDDTAVYYCAAASGSNWRLGAIDEYDSWGQGTQVTVSS
# notes: Secreted from Expi293 cells
# B6: Anti-CD117 VHH P12 (monovalent form) (VHH)
# VHH: QVQLVESGGGLVQAGGSLRLSCTASGDTFSSYSMGWFRQGPGKEREFVGGIRWSGGTTYYADSVKGRFTISRDNAKNTVYLQMNSLKREDTAVYYCAAVRRRWLIWQEEEYDYWGQGTLVTVSS
# notes: Secreted from Expi293 cells
# B7: Anti-CD117 VHH P27 (monovalent form) (VHH)
# VHH: EVQLVESGGGLVRAGGSLRLSCAASGRTTFSTYWLGWFRQAPGKNREFVAAISWSAGMAYYQDSKGRFTISRDNTKNTAYLQMNSLQPEDTAVYYCAAGRFHPIRVDTALYWAQGTQVTVSS
# notes: Secreted from Expi293 cells
# Biological target: T1, Cell surface CD117 on CD117+ cells (SKMEL / SKMEL-3 cells, CD34+ cells / HSPCs, Kasumi-1 cells) (UniProt P10721 26-976, limits assumed)
# T1 construct: whole, on cells; also called cKIT; C-kit
# T1 sequence (P10721 26-976 limits assumed): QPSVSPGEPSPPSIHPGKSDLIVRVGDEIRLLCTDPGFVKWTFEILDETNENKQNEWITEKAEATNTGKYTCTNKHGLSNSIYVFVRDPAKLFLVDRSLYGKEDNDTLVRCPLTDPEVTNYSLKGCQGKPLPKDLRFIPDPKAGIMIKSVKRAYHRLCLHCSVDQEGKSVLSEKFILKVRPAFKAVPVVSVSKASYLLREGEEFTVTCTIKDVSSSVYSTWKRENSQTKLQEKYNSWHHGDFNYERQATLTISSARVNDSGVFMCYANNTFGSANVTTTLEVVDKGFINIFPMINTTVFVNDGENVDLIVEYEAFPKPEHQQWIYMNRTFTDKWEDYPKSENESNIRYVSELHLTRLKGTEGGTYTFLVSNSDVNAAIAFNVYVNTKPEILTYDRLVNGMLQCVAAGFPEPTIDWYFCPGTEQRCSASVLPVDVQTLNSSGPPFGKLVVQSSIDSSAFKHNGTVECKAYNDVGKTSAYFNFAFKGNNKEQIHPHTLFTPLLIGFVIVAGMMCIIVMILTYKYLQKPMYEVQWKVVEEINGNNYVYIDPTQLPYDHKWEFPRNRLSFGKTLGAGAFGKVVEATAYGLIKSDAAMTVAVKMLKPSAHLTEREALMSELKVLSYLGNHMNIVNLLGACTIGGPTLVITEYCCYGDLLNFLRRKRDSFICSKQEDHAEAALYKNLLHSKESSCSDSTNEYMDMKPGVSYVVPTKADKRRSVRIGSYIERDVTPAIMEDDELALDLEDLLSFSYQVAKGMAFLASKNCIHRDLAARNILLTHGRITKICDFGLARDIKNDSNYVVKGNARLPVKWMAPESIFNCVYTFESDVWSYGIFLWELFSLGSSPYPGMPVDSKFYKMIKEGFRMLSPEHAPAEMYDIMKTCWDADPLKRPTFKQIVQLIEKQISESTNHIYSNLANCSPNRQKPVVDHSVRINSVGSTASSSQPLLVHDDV
# Test: flow cytometry on SKMEL cells and CD34 cells (both CD117+)
row,binding result,Binder
1,binds,B1
2,binds,B2
3,binds,B3
4,binds,B4
5,binds,B5
6,binds,B6
7,binds,B7
